The record followed here is article PMC8152229, “Structural and Functional Peculiarities of Cytoplasmic Tropomyosin Isoforms, the Products of TPM1 and TPM4 Genes” (International Journal of Molecular Sciences, 2021).

B1: Tropomyosin isoform Tpm4.2 (natural protein)
chain: not shown
notes: cytoplasmic LMW isoform Tpm4.2 of the TPM4 gene (~247 residues), exons 1b, 9d; an N-terminal extension is stated only for the HMW isoforms; source: E. coli C41(DE3), purified (anion exchange, HiTrap QHP); reduced with DTT before experiments
B2: Tropomyosin isoform Tpm1.12 (natural protein)
chain: not shown
notes: cytoplasmic LMW isoform Tpm1.12 of the TPM1 gene (~247 residues; exon 9c three residues shorter than 9d), exons 1b, 9c; has Cys-154; no N-terminal extension; source: E. coli C41(DE3), purified (anion exchange, HiTrap QHP); reduced with DTT before experiments
B3: Tropomyosin isoform Tpm1.7 with Ala-Ser N-terminal extension (natural protein)
chain: not shown
notes: Ala-Ser N-terminal extension that mimics natural N-terminal acetylation; cytoplasmic HMW isoform Tpm1.7 of the TPM1 gene (~284 residues), exons 1a2b, 6a, 9d; Alpha-helical coiled-coil dimer; source: E. coli C41(DE3), purified (anion exchange, HiTrap QHP)

The target of this test is F-actin from rabbit skeletal muscle, stabilised by phalloidin (rabbit, UniProt P68135 1-377). Description: co-sedimentation; 10 uM phalloidin-stabilized F-actin mixed with increasing Tpm (0 to 5.5-6 uM; up to almost 40 uM for Tpm1.12); 30 mM Hepes-Na pH 7.3, 200 mM NaCl; 40 min at 25 °C; 100,000 x g for 40 min; SDS-PAGE of pellet and supernatant; K50% = Tpm concentration at which actin is half-saturated. The note with it: both partners purified.
Consider B1, for which the K50% worked out at 1.07 µM.

With B2, the K50% was determined as 14.9 µM.

B3 displayed a K50% of 0.4 µM.
